B1: EP369/EP370/EP289 anti-Nectin4/CD3 bispecific antibody (bispecific antibody)
chain: not shown
heavy: EVQLVQSGAEVKKPGASVKVSCKASGYTFTGYYMHWVRQAPGQGLEWMGRINPNSGGTNYAQKFQGRVTMTRDTSISTAYMELSGLRSDDTAVYFCARVTYNIGWYIDYWGQGTLVTVSSASTKGPSVFPLAPSSKSTSGGTAALGCLVKDYFPEPVTVSWNSGALTSGVHTFPAVLQSSGLYSLSSVVTVPSSSLGTQTYICNVNHKPSNTKVDKKVEPKSCDKTHTCPPCPAPEAAGGPSVFLFPPKPKDTLMISRTPEVTCVVVDVSHEDPEVKFNWYVDGVEVHNAKTKPREEQYNSTYRVVSVLTVLHQDWLNGKEYKCKVSNKALGAPIEKTISKAKGQPREPQVCTLPPSRDELTKNQVSLSCAVKGFYPSDIAVEWESNGQPENNYKTTPPVLDSDGSFKLVSKLTVDKSRWQQGNVFSCSVMHEALHNHYTQKSLSLSPGK
light: QAVVTQPPSVSVAPGKTATITCGGNNIGSKGVHWYQQKPGQAPVLVIYYDTDRPSGIPERLSGSNSGNTATLTISRVEAGDEADYYCQVWDSSSDHPVFGGGTKLTVLGQPKANPTVTLFPPSSEELQANKATLVCLISDFYPGAVTVAWKADGSPVKAGVETTKPSKQSNNKYAASSYLSLTPEQWKSHRSYSCQVTHEGSTVEKTVAPTECS
notes: Monovalent format: anti-CD3 sp34 scFv-Fc knob (EP369), EP034-B09 heavy chain hole without ADCC (EP370), EP034-B09 light chain (EP289); also called EP369/370/289
B2: 2020EP034-E01 IgG (EP296/EP286) (antibody, V domains shown)
VH: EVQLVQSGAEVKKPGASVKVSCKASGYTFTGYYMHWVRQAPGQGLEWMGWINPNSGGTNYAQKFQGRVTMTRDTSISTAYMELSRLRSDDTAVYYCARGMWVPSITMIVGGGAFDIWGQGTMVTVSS
VL: DVVMTQSPLSLPVTPGEPASMSCRSSESLLHRNGFNYLDWYVQRPGQSPKLLIYMGSYRASGVPDRFSGRGSGTDFALKISRVEAEDVGVYYCMQALQSPPLYTFGPGTKLEIKR
notes: Human IgG1
B3: 2020EP034-B09 IgG (EP299/EP289) (antibody, V domains shown)
VH: EVQLVQSGAEVKKPGASVKVSCKASGYTFTGYYMHWVRQAPGQGLEWMGRINPNSGGTNYAQKFQGRVTMTRDTSISTAYMELSGLRSDDTAVYFCARVTYNIGWYIDYWGQGTLVTVSS
VL: QAVVTQPPSVSVAPGKTATITCGGNNIGSKGVHWYQQKPGQAPVLVIYYDTDRPSGIPERLSGSNSGNTATLTISRVEAGDEADYYCQVWDSSSDHPVFGGGTKLTVLG
notes: Human IgG1 with lambda light chain; entries without signal peptide used; also called EP034-B09, mAb

Key:
[1] = target: T1, full-length human Nectin4 with C-terminal flag and Myc tags on CHO cells (human, UniProt Q96NY8 32-510); test: flow cytometry on CHO/Nectin4 cells
T1 construct: whole, on cells; also called Nectin4/CHO; CHO/Nectin4; not shown: C-terminal flag and Myc tags of pCMV6-Entry vector
T1 sequence (looked up): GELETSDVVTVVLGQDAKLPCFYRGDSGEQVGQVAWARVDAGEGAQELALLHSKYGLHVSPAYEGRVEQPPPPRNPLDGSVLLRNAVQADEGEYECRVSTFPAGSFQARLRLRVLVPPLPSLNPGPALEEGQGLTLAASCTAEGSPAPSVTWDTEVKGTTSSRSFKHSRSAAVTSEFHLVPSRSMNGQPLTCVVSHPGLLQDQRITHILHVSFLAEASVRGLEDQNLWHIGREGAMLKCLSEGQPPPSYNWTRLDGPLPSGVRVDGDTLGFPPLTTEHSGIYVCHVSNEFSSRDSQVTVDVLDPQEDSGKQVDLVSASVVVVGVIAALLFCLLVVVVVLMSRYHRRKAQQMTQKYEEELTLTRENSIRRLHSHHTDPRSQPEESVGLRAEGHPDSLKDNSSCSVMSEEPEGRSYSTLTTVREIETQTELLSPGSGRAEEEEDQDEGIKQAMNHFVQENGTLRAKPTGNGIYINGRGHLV
Description: Nectin4/CHO Nectin4 cells were plated at 100,000 cells/well in a 96-well plate in 50 μL of full media. Cells were rested 1 hour at 37° C. Anti-Nectin4/CD3 was 3-fold serial titrated from 50 nM. 50 μL was added to the cells and incubated for 1 hours with shaking. Samples were washed one time with flow buffer. […] Samples were washed once with flow buffer. Samples were stained with 100 uL Zombie Fixable Viability Dyes (1:800 dilution) per well and incubated in dark at room temperature for 30 mins. Samples were spun down at 1200 rpm for 5 minutes and washed once with 200 uL flow buffer. Reconstituted samples in 200 uL of flow buffer and read on Attune NxT cytometer. EC₅₀ values for Nectin4 Binding were determined using Prism software.

[2] = target: T2, human CD3E HIS tagged protein (human, UniProt P07766 23-126); test: SPR Biacore T200, bispecific captured on Protein A chip, CD3E-HIS injected
T2 construct: not shown: HIS tag
T2 sequence (P07766 23-126 limits assumed): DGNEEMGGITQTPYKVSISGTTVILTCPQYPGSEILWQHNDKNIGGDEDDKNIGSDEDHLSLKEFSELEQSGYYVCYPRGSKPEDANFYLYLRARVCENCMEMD
Description: (§1) The assay was run with Biacore T200 control software version 2.0. For each cycle, 1 ug/mL of anti-hNectin4/CD3 antibody was captured for 60 seconds at flow rate of 10 ul/min on flow cell 2 in 1×HBSP buffer on Protein A sensor chip. 2-fold serial diluted CD3E-HIS or hNectin4-HIS tagged protein was injected onto both reference flow cell 1 and anti-Nectin4/CD3 bispecific captured flow cell 2 for 150 seconds at flow rate of 30 ul/mins followed by wash for 300 seconds. The flow cells were then regenerated with Glycine pH2 for 60 seconds at flow rate of 30 ul/mins. 8 concentration points from 100 nM-0 nM (CD3E-HIS) or 300 nM-0 nM (Nectin4-HIS) was assayed per anti-Nectin4 IgG in a 96 well plate. The kinetics of Anti-Nectin4/CD3 bispecific binding to CD3E and Nectin4 proteins was analyzed with Biacore T200 evaluation software version 3.0. The specific binding response unit was derived from subtraction of binding to reference flow cell 1 from antibody captured flow cell 2. Table 10 below listed the kinetics results. ND means not determined. NA means data not available.

[3] = target: T3, human Nectin4-HIS tagged recombinant protein (human, UniProt Q96NY8 32-349); test: SPR Biacore T200, bispecific captured on Protein A chip, hNectin4-HIS injected
T3 construct: also called hNectin4-HIS; Nectin4 HIS tagged protein; not shown: HIS tag
T3 sequence (looked up): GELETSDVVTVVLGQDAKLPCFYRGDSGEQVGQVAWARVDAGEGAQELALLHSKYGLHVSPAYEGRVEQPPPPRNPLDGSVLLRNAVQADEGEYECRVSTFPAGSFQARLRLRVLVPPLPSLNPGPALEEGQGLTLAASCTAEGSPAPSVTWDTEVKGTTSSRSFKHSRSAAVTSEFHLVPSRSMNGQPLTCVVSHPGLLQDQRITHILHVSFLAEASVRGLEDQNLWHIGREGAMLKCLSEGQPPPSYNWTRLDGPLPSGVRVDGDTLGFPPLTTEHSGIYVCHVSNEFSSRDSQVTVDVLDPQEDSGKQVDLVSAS
Description: as §1

[4] = target: T2, human CD3E HIS tagged protein; test: ELISA, coated human CD3E HIS tagged protein, bispecific titrated, anti-Human HRP
Description: (§2) An ELISA assay was developed to determine the EC₅₀ of anti-Nectin4/CD3 bispecific antibodies. Briefly, 384 well plate was immobilized with human CD3E or Nectin4 HIS tagged protein at final concentration of 2 ug/mL in 1×PBS in total volume of 25 uL per well. The plate was incubated overnight at 4° C. followed by blocking with 80 uL of superblock per well for 1 hour. Purified anti-Nectin4/CD3 was 3-fold serial titrated from 100 nM. 25 uL was added to human Nectin4/CD3 immobilized wells and incubated for 1 hour with shaking. The CD3E or Nectin4 binding was detected by adding 25 uL of anti-Human HRP diluted at 1:10000 in 1×PBST. In between each step, the plate was washed 3 times with […] in a plate washer. The plate was then developed with 20 ul of TMB substrate for 5 mins and stopped by adding 20 ul of 2N sulfuric acid. The plate was read at OD450 nm Biotek plate reader and then plotted in Prism 8.1 software to calculate EC50.

[5] = target: T4, CD3 on Jurkat cells (UniProt P07766 23-207, limits assumed); test: cell-based or functional assay
T4 sequence (P07766 23-207 limits assumed): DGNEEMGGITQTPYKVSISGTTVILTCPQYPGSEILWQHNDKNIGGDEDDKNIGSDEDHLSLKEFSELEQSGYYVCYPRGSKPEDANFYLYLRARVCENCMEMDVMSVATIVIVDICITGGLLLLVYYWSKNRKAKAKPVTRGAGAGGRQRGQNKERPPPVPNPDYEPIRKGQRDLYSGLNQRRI

[6] = target: T3, human Nectin4-HIS tagged recombinant …; test: ELISA, coated Nectin4 HIS tagged protein, bispecific titrated, anti-Human HRP
Description: as §2

[7] = target: T4, CD3 on Jurkat cells; test: flow cytometry on Jurkat cells
Description: Jurkat cells were plated at 100,000 cells/well in a 96-well plate with 50 μL of full media. Anti-Nectin4/CD3 antibodies were 3-fold serial titrated from 20 nM. 50 μL was added to the cells and incubated for 1 hours at room temperature with shaking. Samples were washed one time with flow buffer. […] Samples were washed once with flow buffer. Samples were stained with 100 uL Zombie Fixable Viability Dyes at 1:800 dilution per well and incubated in dark at room temperature for 30 mins. Samples were spun down at 1300 rpm for 5 minutes and washed once with 200 uL flow buffer. Reconstituted samples in 200 uL of flow buffer and read on Attune NxT cytometer. EC50 values for CD3 binding were calculated using Prism 8.1 software.

[8] = target: T3, human Nectin4-HIS tagged recombinant …; test: ELISA, coated human Nectin4-HIS, IgG titrated, anti-hFc HRP
Description: An ELISA assay was developed to determine the EC₅₀ of exemplary anti-Nectin4 IgG antibodies. Briefly, 384 well plate was immobilized with human Nectin4-HIS tagged recombinant protein at final concentration of 2 ug/mL in 1×PBS in total volume of 25 uL per well. The plate was incubated overnight at 4° C. followed by blocking with 80 uL of superblock per well for 1 hour. Titration of purified anti-Nectin4 IgG starting at 200 nM 2-fold serial dilution, 25 uL was added to human Nectin4 immobilized wells and incubated for 1 hour with shaking. The Nectin4 binding was detected by adding 25 uL of anti-hFc HRP diluted at 1:5000 in 1×PBST. In between each step, the plate was washed 3 times with 1×PBST in a plate washer. The plate was then developed with 20 ul of TMB substrate for 5 mins and stopped by adding 20 ul of 2N sulfuric acid. The plate was read at OD450 nm Biotek plate reader and then plotted in Prism 8.1 software.

[9] = target: T1, full-length human Nectin4 with …; test: cell-based or functional assay
[10] = target: monkey nectin4 protein (monkey); test: ELISA, coated monkey nectin4, IgG titrated, anti-hFc HRP
[11] = target: T1, full-length human Nectin4 with …; test: flow cytometry, IgG on Nectin4/CHO cells, anti-hFc Alexa fluor 647
Description: 200 nM of purified anti-Nectin4 IgG antibodies were diluted in full medium and incubated with Nectin4/CHO and CHO cells in 96 wells plate on ice for 1 hour. Cells were spun down at 1200 rpm for 5 minutes at 4° C. to remove primary antibodies. Cells were then washed once with 200 uL of full medium per well. Samples were detected with anti-hFc Alexa fluor 647 by adding 100 uL of diluted secondary antibody and incubated at 4° C. for 30 minutes in the dark. Samples were spun down at 1200 rpm for 5 minutes at 4° C. and washed twice with 200 uL of 1×PBS per well. Reconstituted samples in 200 uL of 1×PBS and read on Attune NxT cytometer. Analysis was done by Attune NxT software plotting the overlay histogram of […] proteins binding onto both negative and target cell lines.

[12] = target: T5, mouse nectin4 protein (mouse, UniProt Q8R007 31-347, limits assumed); test: ELISA, coated mouse nectin4, IgG titrated, anti-hFc HRP
T5 sequence (looked up): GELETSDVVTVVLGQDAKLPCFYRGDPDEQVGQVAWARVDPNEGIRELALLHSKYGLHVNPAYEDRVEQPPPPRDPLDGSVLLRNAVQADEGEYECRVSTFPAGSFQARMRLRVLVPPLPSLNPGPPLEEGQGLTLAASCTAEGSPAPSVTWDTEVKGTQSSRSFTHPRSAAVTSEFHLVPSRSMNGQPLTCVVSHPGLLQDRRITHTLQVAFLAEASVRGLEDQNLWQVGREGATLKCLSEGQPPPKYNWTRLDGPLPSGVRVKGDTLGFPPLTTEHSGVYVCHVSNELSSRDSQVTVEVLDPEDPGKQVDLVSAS

[13] = target: T3, human Nectin4-HIS tagged recombinant …; test: SPR Biacore T200, IgG captured on Protein A chip, hNectin4-HIS injected
Description: Kinetic analysis of anti-Nectin4 IgG has been assessed by the SPR technology with Biacore T200. The assay was run with Biacore T200 control software version 2.0. For each cycle, 1 ug/mL of anti-hNectin4-IgG was captured for 60 seconds at flow rate of 10 ul/min on flow cell 2 in 1×HBSP buffer on Protein A sensor chip. 2-fold serial hNectin4-HIS tagged protein was injected onto both reference flow cell 1 and anti-Nectin4 IgG captured flow cell 2 for 150 seconds at flow rate of 30 ul/mins followed by wash for 300 seconds. The flow cells were then regenerated with Glycine pH2 for 60 seconds at flow rate of 30 ul/mins. 8 concentration points from 100-0 nM was assayed per anti-Nectin4 IgG in a 96 well plate. The kinetics of Anti-Nectin4 IgG binding to Nectin4 protein was analyzed with Biacore T200 evaluation software version 3.0. The specific binding response unit was derived from subtraction of binding to reference flow cell 1 from antibody captured flow cell 2.

[14] = target: T3, human Nectin4-HIS tagged recombinant …; test: ELISA, coated human Nectin4-HIS, antibody titrated, anti-hFc HRP

| Binder | EC50 [1] | Kd [2] | koff [2] | kon [2] | Kd [3] | koff [3] | kon [3] | EC50 [4] | NFAT reporter EC50 [5] | EC50 [6] | EC50 [7] | EC50 [8] | ADCC Bioreporter assay EC50 [9] | EC50 [10] | EC50 [11] | EC50 [12] | Kd [13] | EC50 [14] |
| --- | --- | --- | --- | --- | --- | --- | --- | --- | --- | --- | --- | --- | --- | --- | --- | --- | --- | --- |
| B1 | 0.146 nM | 2.23 nM | 0.00059 s⁻¹ | 265000 M⁻¹ s⁻¹ | 1.22 nM | 0.00012 s⁻¹ | 98800 M⁻¹ s⁻¹ | 0.005 nM | 0.0038 nM | 0.019 nM | 0.169 nM |  |  |  |  |  |  |  |
| B2 |  |  |  |  |  |  |  |  |  |  |  | 0.035 nM | 1.43 nM | 0.043 nM | 0.017 nM | 0.037 nM | 11 nM |  |
| B3 |  |  |  |  |  |  |  |  |  |  |  | 0.018 nM | 1.16 nM | 0.019 nM | 0.0062 nM | 0.017 nM | 1.47 nM | 0.061 nM |
